Assay results reported in publication PMC8298264, “Function of cofactor Akirin2 in the regulation of gene expression in model human neutrophil-like HL60 cells” (Bioscience Reports, 2021).

tested on: human HL60 cells; experiment: SWATH-MS proteomics, differential protein representation, akirin2 KO vs WT HL60 cells; assay type: cell-based; settings: KO vs WT HL60 cells; sheet "Under-represented in KO"
Procedure, shortened: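 Proteins from WT and akirin2 KO HL60 cells (n=3 biological replicates) were FASP trypsin-digested and analyzed by SWATH-MS DIA with variable windows against an IDA-derived spectral library. Identifications at 1% global FDR; quantities normalized to total area sums of all detected proteins.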

Molecule	Fold Change	Log (Fold Change)
sp¦Q9BXW7¦HDHD5_HUMAN (protein, UniProt Q9BXW7 24-423, looked up) Haloacid dehalogenase-like …: AAGLQGRPARRCYAVGPAQSPPTFGFLLDIDGVLVRGHRVIPAALKAFRRLVNSQGQLRVPVVFVTNAGNILQHSKAQELSALLGCEVDADQVILSHSPMKLFSEYHEKRMLVSGQGPVMENAQGLGFRNVVTVDELRMAFPLLDMVDLERRLKTTPLPRNDFPRIEGVLLLGEPVRWETSLQLIMDVLLSNGSPGAGLATPPYPHLPVLASNMDLLWMAEAKMPRFGHGTFLLCLETIYQKVTGKELRYEGLMGKPSILTYQYAEDLIRRQAERRGWAAPIRKLYAVGDNPMSDVYGANLFHQYLQKATHDGAPELGAGGTRQQQPSASQSCISILVCTGVYNPRNPQSTEPVLGGGEPPFHGHRDLCFSPGLMEASHVVNDVNEAVQLVFRKEGWALE	0.4469	-0.3498
sp¦P61020¦RAB5B_HUMAN (protein, UniProt P61020 2-215, looked up) Ras-related protein Rab-5B: TSRSTARPNGQPQASKICQFKLVLLGESAVGKSSLVLRFVKGQFHEYQESTIGAAFLTQSVCLDDTTVKFEIWDTAGQERYHSLAPMYYRGAQAAIVVYDITNQETFARAKTWVKELQRQASPSIVIALAGNKADLANKRMVEYEEAQAYADDNSLLFMETSAKTAMNVNDLFLAIAKKLPKSEPQNLGGAAGRSRGVDLHEQSQQNKSQCCSN	0.4514	-0.3455
sp¦O75915¦PRAF3_HUMAN (protein, UniProt O75915 1-188, looked up) PRA1 family protein 3: MDVNIAPLRAWDDFFPGSDRFARPDFRDISKWNNRVVSNLLYYQTNYLVVAAMMISIVGFLSPFNMILGGIVVVLVFTGFVWAAHNKDVLRRMKKRYPTTFVMVVMLASYFLISMFGGVMVFVFGITFPLLLMFIHASLRLRNLKNKLENKMEGIGLKRTPMGIVLDALEQQEEGINRLTDYISKVKE	0.4503	-0.3465
sp¦Q7L5N7¦PCAT2_HUMAN (protein, UniProt Q7L5N7 1-544, looked up) Lysophosphatidylcholine …: MSRCAQAAEVAATVPGAGVGNVGLRPPMVPRQASFFPPPVPNPFVQQTQIGSARRVQIVLLGIILLPIRVLLVALILLLAWPFAAISTVCCPEKLTHPITGWRRKITQTALKFLGRAMFFSMGFIVAVKGKIASPLEAPVFVAAPHSTFFDGIACVVAGLPSMVSRNENAQVPLIGRLLRAVQPVLVSRVDPDSRKNTINEIIKRTTSGGEWPQILVFPEGTCTNRSCLITFKPGAFIPGVPVQPVLLRYPNKLDTVTWTWQGYTFIQLCMLTFCQLFTKVEVEFMPVQVPNDEEKNDPVLFANKVRNLMAEALGIPVTDHTYEDCRLMISAGQLTLPMEAGLVEFTKISRKLKLDWDGVRKHLDEYASIASSSKGGRIGIEEFAKYLKLPVSDVLRQLFALFDRNHDGSIDFREYVIGLAVLCNPSNTEEIIQVAFKLFDVDEDGYITEEEFSTILQASLGVPDLDVSGLFKEIAQGDSISYEEFKSFALKHPEYAKIFTTYLDLQTCHVFSLPKEVQTTPSTASNKVSPEKHEESTSDKKDD	0.4537	-0.3432
sp¦Q9P035¦HACD3_HUMAN (protein, UniProt Q9P035 1-362, looked up) Very-long-chain …: MENQVLTPHVYWAQRHRELYLRVELSDVQNPAISITENVLHFKAQGHGAKGDNVYEFHLEFLDLVKPEPVYKLTQRQVNITVQKKVSQWWERLTKQEKRPLFLAPDFDRWLDESDAEMELRAKEEERLNKLRLESEGSPETLTNLRKGYLFMYNLVQFLGFSWIFVNLTVRFCILGKESFYDTFHTVADMMYFCQMLAVVETINAAIGVTTSPVLPSLIQLLGRNFILFIIFGTMEEMQNKAVVFFVFYLWSAIEIFRYSFYMLTCIDMDWKVLTWLRYTLWIPLYPLGCLAEAVSVIQSIPIFNETGRFSFTLPYPVKIKVRFSFFLQIYLIMIFLGLYINFRHLYKQRRRRYGQKKKKIH	0.4569	-0.3402
sp¦Q92878¦RAD50_HUMAN (protein, UniProt Q92878 1-1312, looked up) DNA repair protein RAD50: MSRIEKMSILGVRSFGIEDKDKQIITFFSPLTILVGPNGAGKTTIIECLKYICTGDFPPGTKGNTFVHDPKVAQETDVRAQIRLQFRDVNGELIAVQRSMVCTQKSKKTEFKTLEGVITRTKHGEKVSLSSKCAEIDREMISSLGVSKAVLNNVIFCHQEDSNWPLSEGKALKQKFDEIFSATRYIKALETLRQVRQTQGQKVKEYQMELKYLKQYKEKACEIRDQITSKEAQLTSSKEIVKSYENELDPLKNRLKEIEHNLSKIMKLDNEIKALDSRKKQMEKDNSELEEKMEKVFQGTDEQLNDLYHNHQRTVREKERKLVDCHRELEKLNKESRLLNQEKSELLVEQGRLQLQADRHQEHIRARDSLIQSLATQLELDGFERGPFSERQIKNFHKLVRERQEGEAKTANQLMNDFAEKETLKQKQIDEIRDKKTGLGRIIELKSEILSKKQNELKNVKYELQQLEGSSDRILELDQELIKAERELSKAEKNSNVETLKMEVISLQNEKADLDRTLRKLDQEMEQLNHHTTTRTQMEMLTKDKADKDEQIRKIKSRHSDELTSLLGYFPNKKQLEDWLHSKSKEINQTRDRLAKLNKELASSEQNKNHINNELKRKEEQLSSYEDKLFDVCGSQDFESDLDRLKEEIEKSSKQRAMLAGATAVYSQFITQLTDENQSCCPVCQRVFQTEAELQEVISDLQSKLRLAPDKLKSTESELKKKEKRRDEMLGLVPMRQSIIDLKEKEIPELRNKLQNVNRDIQRLKNDIEEQETLLGTIMPEEESAKVCLTDVTIMERFQMELKDVERKIAQQAAKLQGIDLDRTVQQVNQEKQEKQHKLDTVSSKIELNRKLIQDQQEQIQHLKSTTNELKSEKLQISTNLQRRQQLEEQTVELSTEVQSLYREIKDAKEQVSPLETTLEKFQQEKEELINKKNTSNKIAQDKLNDIKEKVKNIHGYMKDIENYIQDGKDDYKKQKETELNKVIAQLSECEKHKEKINEDMRLMRQDIDTQKIQERWLQDNLTLRKRNEELKEVEEERKQHLKEMGQMQVLQMKSEHQKLEENIDNIKRNHNLALGRQKGYEEEIIHFKKELREPQFRDAEEKYREMMIVMRTTELVNKDLDIYYKTLDQAIMKFHSMKMEEINKIIRDLWRSTYRGQDIEYIEIRSDADENVSASDKRRNYNYRVVMLKGDTALDMRGRCSAGQKVLASLIIRLALAETFCLNCGIIALDEPTTNLDRENIESLAHALVEIIKSRSQQRNFQLLVITHDEDFVELLGRSEYVEKFYRIKKNIDQCSEIVKCSVSSLGFNVH	0.4495	-0.3473

same assay, conditions: akirin2 KO vs WT HL60 cells; sheet "Under-represented in KO"

Molecule	Fold Change	Log (Fold Change)
RRRRRsp¦Q5VW38¦GP107_HUMAN (protein, UniProt Q5VW38 40-600, looked up) Protein GPR107: RVHHLALKDDVRHKVHLNTFGFFKDGYMVVNVSSLSLNEPEDKDVTIGFSLDRTKNDGFSSYLDEDVNYCILKKQSVSVTLLILDISRSEVRVKSPPEAGTQLPKIIFSRDEKVLGQSQEPNVNPASAGNQTQKTQDGGKSKRSTVDSKAMGEKSFSVHNNGGAVSFQFFFNISTDDQEGLYSLYFHKCLGKELPSDKFTFSLDIEITEKNPDSYLSAGEIPLPKLYISMAFFFFLSGTIWIHILRKRRNDVFKIHWLMAALPFTKSLSLVFHAIDYHYISSQGFPIEGWAVVYYITHLLKGALLFITIALIGTGWAFIKHILSDKDKKIFMIVIPLQVLANVAYIIIESTEEGTTEYGLWKDSLFLVDLLCCGAILFPVVWSIRHLQEASATDGKGDSMGPLQQRANLRAGSRIESHHFAQADLELLASSCPPASVSQRAGITAAINLAKLKLFRHYYVLIVCYIYFTRIIAFLLKLAVPFQWKWLYQLLDETATLVFFVLTGYKFRPASDNPYLQLSQEEEDLEMESVVTTSGVMESMKKVKKVTNGSVEPQGEWEGAV	0.4419	-0.3547
